Legend:
[1] = tested on: CA20948 rat tissues and organs; test: Fluorescence imaging of ex-vivo tissues and organs from CA20948 tumor bearing rat; format: in vivo; conditions: 27 hours post administration (FIG. 5)
Protocol: Individual organs were removed from the CA20948 rat which was injected with cytate 1 and were imaged.

[2] = tested on: Dunning R3327-H (prostate) tumor; test: In vivo fluorescence imaging of Dunning R3327-H tumor bearing rats; design: species or system male Lewis rats; conditions: images at 2 and 30 minutes post administration, 0.5 ml of 0.42 mg/ml i.v.
From the text: (§1) A non-invasive in vivo fluorescence imaging apparatus was employed to assess the efficacy of indocyanine green (ICG) in three different rat tumor cell lines of the inventive contrast agents developed for tumor detection in animal models. A LaserMax Inc. laser diode of nominal wavelength 780 nm and nominal power of 40 mW was used. The detector was a Princeton Instruments model RTE/CCD-1317-K/2 CCD camera with a Rodenstock 10 mm F2 lens (stock #542.032.002.20) attached. An 830 nm […] (CVI Laser Corp., part #F10-830-4-2) was mounted in front of the CCD input lens, such that only emitted fluorescent light from the contrast agent was imaged.
(§2) Three tumor cell lines, DSL 6/A (pancreatic), Dunning R3327-H (prostate), and CA20948 (pancreatic), which are rich in somatostatin (SST-2) receptors were induced into male Lewis rats by solid implant technique in the left flank area (Achilefu et al., Invest. Radiology, 2000, pp. 479-485). Palpable masses were detected nine days post implant.
(§3) The animals were anesthetized with xylazine:ketamine:acepromazine (1.5:1.5:0.5^v/v) at 0.8 ml/kg via intramuscular injection. The left flank was shaved to expose the tumor and surrounding surface area. A 21-gauge butterfly needle equipped with a stopcock connected to two syringes containing heparinized saline was placed into the tail vein of the rat. […]

[3] = tested on: CA20948 (pancreatic) tumor, rich in somatostatin (SST-2) receptors; test: In vivo fluorescence imaging of CA20948 tumor bearing rats; design: species or system male Lewis rats
From the text: as §1, §2, §3

[4] = tested on: DSL 6/A (pancreatic) tumor; test: In vivo fluorescence imaging of DSL 6/A tumor bearing rats; design: species or system male Lewis rats; conditions: images at 2 and 30 minutes post administration, 0.5 ml of 0.42 mg/ml i.v.
From the text: as §1, §2, §3

## C[C@@H](O)[C@H](NC(=O)[C@@H]1CSSC[C@H](NC(=O)[C@@H](Cc2ccccc2)NC(=O)CC[N+]2=C(/C=C/C=C/C=C/C=C3/N(CCC(=O)O)c4ccc5ccccc5c4C3(C)C)C(C)(C)c3c2ccc2ccccc32)C(=O)N[C@@H](Cc2ccc(O)cc2)C(=O)N[C@H](Cc2c[nH]c3ccccc23)C(=O)N[C@@H](CCCCN)C(=O)N[C@@H]([C@@H](C)O)C(=O)N1)C(=O)O [Cytate 1, monooctreotate-bisethylcarboxymethylindocyanine dye]
[1]; ex vivo organ
  uptake of the conjugate in adrenal glands: High uptake
  uptake of the conjugate in heart: Significant lower uptake
  uptake of the conjugate in liver: Significant lower uptake
  uptake of the conjugate in pancreas: High uptake
  uptake of the conjugate in spleen: Significant lower uptake
[1]; ex vivo tissue
  uptake of the conjugate in muscle: Significant lower uptake
  uptake of the conjugate in tumor tissue: High uptake

## CC1(C)C(/C=C/C=C/C=C/C=C2\N(CCCCS(=O)(=O)O)c3ccc4ccccc4c3C2(C)C)=[N+](CCCCS(=O)(=O)[O-])c2ccc3ccccc3c21 [ICG, indocyanine green]
[2]
  perfusion of the agent into the tumor: slow perfusion of the agent into the tumor over time
[3]; compared to the other two lines
  non-specific localization into the tumor line: no non-specific localization
[3]; images at 2 and 30 minutes post administration, 0.5 ml of 0.42 mg/ml i.v.
  perfusion of the agent into the tumor: only a slight and transient perfusion that was cleared after only 30 minutes post injection
[4]
  perfusion of the agent into the tumor: slow perfusion of the agent into the tumor over time

— patent US6761878B2, “Pathological tissue detection and treatment employing targeted benzoindole optical agents” (Mallinckrodt, Inc., priority 2001, dated 2004)
